Test results as given in patent US20050255104A1.

Target: human tumor necrosis factor-α (TNFα) (human) (UniProt P01375)
Assay: cell-based or functional assay

Chain of human tumor necrosis factor-α (TNFα) (human) (P01375 77-233 limits assumed): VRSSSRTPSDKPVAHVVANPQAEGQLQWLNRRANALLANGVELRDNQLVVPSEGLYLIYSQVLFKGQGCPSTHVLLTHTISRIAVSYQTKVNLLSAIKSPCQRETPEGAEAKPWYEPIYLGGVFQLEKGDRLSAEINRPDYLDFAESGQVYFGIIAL

B1: chimeric mouse/human IgG1 anti-platelet mAb (7E3) (antibody, INN chains, looked up, V domains shown)
VH: EVQLQQSGTVLARPGASVKMSCEASGYTFTNYWMHWVKQRPGQGLEWIGAIYPGNSDTSYIQKFKGKAKLTAVTSTTSVYMELSSLTNEDSAVYYCTLYDGYYVFAYWGQGTLVTVSA
VL: EIVLTQSPVTLSVTPGDSVSLSCRASRDISNNLHWFQQTSHESPRLLIKYASQSMSGIPSRFSGSGSGTDFTLSINSVETEDFGMYFCQQTNSWPYTFGGGTKLEIK
modifications: full IgG1
- IL-6 secreted by FS-4 fibroblasts, 0.3 ng/ml rhTNF with 4 µg/ml antibody: 1.6 ng/mL
- IL-6 secreted by FS-4 fibroblasts, 1.5 ng/ml rhTNF with 4 µg/ml antibody: 1.96 ng/mL
- IL-6 secreted by FS-4 fibroblasts, 7.5 ng/ml rhTNF with 4 µg/ml antibody: 2.16 ng/mL
